We go through nine substances from publication PMC12990809.

Holding throughout (assay): pulldown
Holding throughout (settings): 20 nM protein, 1.5 uM RNA pool; 20 mM HEPES pH 7.8, 70 mM KCl, 10 mM NaCl, 10% glycerol, 2 mM DTT, 0.1 ug/uL BSA; 30 min, 4 C

Data set [1] concerns the target T1, SCHCODRAFT_104251 ins42_DR;V186I (Schizophyllum commune) (UniProt A0ACF2EEN8).
T1 sequence: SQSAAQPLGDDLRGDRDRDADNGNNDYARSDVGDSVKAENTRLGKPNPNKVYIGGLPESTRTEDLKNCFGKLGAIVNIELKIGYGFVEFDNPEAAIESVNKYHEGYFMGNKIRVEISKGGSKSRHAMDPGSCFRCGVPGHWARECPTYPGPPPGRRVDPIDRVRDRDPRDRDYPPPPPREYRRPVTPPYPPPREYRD

Data set [2] deals with T2, Tb927.7.2140 V21F (Trypanosoma brucei) (UniProt D6XKD1).
T2 sequence: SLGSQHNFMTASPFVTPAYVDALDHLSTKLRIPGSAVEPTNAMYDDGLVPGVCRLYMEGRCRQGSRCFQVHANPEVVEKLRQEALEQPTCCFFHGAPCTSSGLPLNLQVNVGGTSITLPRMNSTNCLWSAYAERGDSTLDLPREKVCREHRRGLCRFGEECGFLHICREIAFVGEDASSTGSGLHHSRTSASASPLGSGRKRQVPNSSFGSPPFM

Data set [3] concerns the target khdrbs1b (Tetraodon nigroviridis) (UniProt H3D6B2).
In data set [4] the target is T3, Tb927.5.810 S125L (Trypanosoma brucei) (UniProt Q57W26).
T3 sequence: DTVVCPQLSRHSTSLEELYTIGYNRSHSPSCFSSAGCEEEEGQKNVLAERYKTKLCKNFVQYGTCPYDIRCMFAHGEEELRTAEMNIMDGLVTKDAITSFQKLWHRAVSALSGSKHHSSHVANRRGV

The target of data set [5] is T4, TIA1 (Tetraodon nigroviridis) (UniProt H3D1J1).
T4 sequence: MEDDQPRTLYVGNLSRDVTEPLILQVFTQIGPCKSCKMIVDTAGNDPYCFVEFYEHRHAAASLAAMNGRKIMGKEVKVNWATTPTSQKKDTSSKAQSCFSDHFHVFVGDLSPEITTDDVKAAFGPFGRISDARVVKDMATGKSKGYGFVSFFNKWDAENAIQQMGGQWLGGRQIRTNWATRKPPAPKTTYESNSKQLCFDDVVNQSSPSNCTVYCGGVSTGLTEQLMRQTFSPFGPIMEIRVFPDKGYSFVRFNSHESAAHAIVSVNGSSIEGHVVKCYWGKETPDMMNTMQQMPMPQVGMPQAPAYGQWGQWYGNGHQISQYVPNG

Data set [6] deals with T5, NCU04254 (Neurospora crassa) (UniProt Q7S7T0).
T5 sequence: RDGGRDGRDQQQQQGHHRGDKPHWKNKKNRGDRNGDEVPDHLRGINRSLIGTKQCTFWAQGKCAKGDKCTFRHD

For data set [7], the target named is T6, CBG00421 (Caenorhabditis briggsae) (UniProt A8WN19).
T6 sequence: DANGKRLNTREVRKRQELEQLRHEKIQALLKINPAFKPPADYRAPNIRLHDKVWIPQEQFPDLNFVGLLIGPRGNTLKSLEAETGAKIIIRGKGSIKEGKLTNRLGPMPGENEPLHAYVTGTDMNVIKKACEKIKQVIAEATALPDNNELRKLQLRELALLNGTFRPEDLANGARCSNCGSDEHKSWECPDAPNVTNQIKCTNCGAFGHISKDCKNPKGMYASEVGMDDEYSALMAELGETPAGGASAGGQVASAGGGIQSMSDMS

The target in a further data set is hnrnpa0b (Danio rerio) (UniProt A0A8M1PHH6).
For data set [8], the target named is T7, ENSXETG00000023721 (Xenopus tropicalis) (UniProt A0A803KLF2).
T7 sequence: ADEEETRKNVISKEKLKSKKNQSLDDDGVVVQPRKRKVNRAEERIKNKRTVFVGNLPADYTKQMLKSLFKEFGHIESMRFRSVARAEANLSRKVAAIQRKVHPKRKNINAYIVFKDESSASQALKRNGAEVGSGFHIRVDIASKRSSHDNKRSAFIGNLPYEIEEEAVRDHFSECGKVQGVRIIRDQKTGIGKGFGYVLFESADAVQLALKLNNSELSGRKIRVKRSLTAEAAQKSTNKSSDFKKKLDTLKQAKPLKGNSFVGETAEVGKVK

khdrbs1b (Tetraodon nigroviridis), sequence (H3D6B2 entry or part of it): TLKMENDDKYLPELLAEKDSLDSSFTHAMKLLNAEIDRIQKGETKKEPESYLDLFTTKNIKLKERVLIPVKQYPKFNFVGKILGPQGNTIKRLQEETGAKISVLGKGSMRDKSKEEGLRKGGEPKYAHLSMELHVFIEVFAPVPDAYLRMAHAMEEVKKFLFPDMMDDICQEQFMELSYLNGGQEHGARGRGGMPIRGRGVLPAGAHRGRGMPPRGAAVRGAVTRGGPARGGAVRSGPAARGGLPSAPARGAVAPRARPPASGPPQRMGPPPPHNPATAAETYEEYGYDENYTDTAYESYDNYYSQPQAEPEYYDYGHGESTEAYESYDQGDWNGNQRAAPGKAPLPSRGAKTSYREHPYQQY
hnrnpa0b (Danio rerio), sequence (A0A8M1PHH6 entry or part of it): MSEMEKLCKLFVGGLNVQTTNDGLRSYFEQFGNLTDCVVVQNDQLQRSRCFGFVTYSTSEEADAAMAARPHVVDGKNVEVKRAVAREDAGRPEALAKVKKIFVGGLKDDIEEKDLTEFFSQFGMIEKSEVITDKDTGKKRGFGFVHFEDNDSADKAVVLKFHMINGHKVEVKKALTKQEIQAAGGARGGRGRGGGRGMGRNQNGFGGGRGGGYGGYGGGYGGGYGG

GACUA [RNAcompete motif RNCMPT00866] returned a binding signal (z-score (mean of top ten 7-mers)) in data set [1] of 6.58.
AAAACG [RNAcompete motif RNCMPT00834] had a binding signal (z-score (mean of top ten 7-mers)) in [2] of 26.
Substance AUAAAAG [RNAcompete motif RNCMPT01673] came in with a binding signal (z-score (mean of top ten 7-mers)) in data set [3] of 8.63.
For UAUUAUU [RNAcompete motif RNCMPT00837], the binding signal (z-score (mean of top ten 7-mers)) in data set [4] is 13.
In turn, UUUUUU [RNAcompete motif RNCMPT01672] returned a binding signal (z-score (mean of top ten 7-mers)) in data set [5] of 8.74.
Consider GAAUGG [RNAcompete motif RNCMPT00835], for which the binding signal (z-score (mean of top ten 7-mers)) in data set [6] worked out at 8.35.
As to GANUAAU [RNAcompete motif RNCMPT00840], the binding signal (z-score (mean of top ten 7-mers)) in data set [7] turned out to be 14.5.
In the case of UUAGAUAG [RNAcompete motif RNCMPT01667], the binding signal (z-score (mean of top ten 7-mers)) in the data set with hnrnpa0b (Danio rerio) worked out at 9.2.
As for GAACG [RNAcompete motif RNCMPT00828], in [8], the binding signal (z-score (mean of top ten 7-mers)) is 10.8.
